The target of one data set is thrombin (UniProt P00734+P00734). The conditions noted are these: CD titration at 295 nm, water, no added cations.
The target in another data set is thrombin (Bos taurus) (UniProt P00735+P00735). Put plainly: inhibition. To be noted: clotting time.

Like-named read-outs stand apart in the source and are kept apart here.

The Kd is the constant that tells how readily two partners part at equilibrium. A high value points to lower affinity. Sequence GGTTGGTGTGGTTGG [TBA] yielded an equilibrium dissociation constant (Kd) with thrombin (n = 1) of 0.38 µM. GGTTGGTGTGGTTGG [isoTBA] registered an activity with thrombin (Bos taurus) (2'-5'-linked isoDNA analogue of TBA [1-15 (all 2'-5'-linked isoDNA)], stated for comparison with TBA and iso-rTBA) of 73.4 s. GGUUGGUGUGGUUGG [iso-rTBA] returned an activity with thrombin (Bos taurus) (all 2'-5'-linked RNA (3'-OH), SEQ ID NO:1, 0.25 uM oligomer, 0.1 NIH U thrombin, 3.5 uM human fibrinogen, 37 °C) of 70.9 s. This sequence also had a Kd in the data set with thrombin (all 2'-5'-linked RNA (3'-OH), SEQ ID NO:1, n = 4 thrombin per oligomer) of 3.4 µM.
